Experimental data from patent US20190241662A1 (ADAGENE, published 2019).
Positions count from the first letter of the chain named.

Legend:
[1] = molecular target: T1, human PD1 on HEK293F cells (human, UniProt Q15116 25-288); experiment: flow cytometry, transfected HEK293F cells [Cont.]
T1 construct: whole, on cells
Experimental: (§1) Antibody selectivity was next examined. Human CTLA4, PD1, LAG3, Tim3, B7H3, CD95, TNFR1, OX40, CD40, PD-L1, BLTA, VISTA, PDL2, ICOS and B7H4 were transiently overexpressed on the surface of HEK293F cells. Transfected cells were washed in pre-chilled 1×PBSA buffer (1.76 mM KH2PO4, 10.14 mM Na2HPO4.12H2O, 2.68 mM KCl, 136.89 mM NaCl and 1% BSA), then incubated with 100 nM test antibodies for 1 hour on ice. Cells were washed once with staining buffer, and Alexa Fluor® 647 conjugated mouse anti-human FC antibodies were added and incubated for 30 minutes on ice, protected from light. Samples were washed once with staining buffer prior to analysis by flow cytometry.

[2] = molecular target: T2, human LAG3 on HEK293F cells (human, UniProt P18627 23-525); experiment: flow cytometry, transfected HEK293F cells [Cont.]
T2 construct: whole, on cells
T2 sequence (looked up): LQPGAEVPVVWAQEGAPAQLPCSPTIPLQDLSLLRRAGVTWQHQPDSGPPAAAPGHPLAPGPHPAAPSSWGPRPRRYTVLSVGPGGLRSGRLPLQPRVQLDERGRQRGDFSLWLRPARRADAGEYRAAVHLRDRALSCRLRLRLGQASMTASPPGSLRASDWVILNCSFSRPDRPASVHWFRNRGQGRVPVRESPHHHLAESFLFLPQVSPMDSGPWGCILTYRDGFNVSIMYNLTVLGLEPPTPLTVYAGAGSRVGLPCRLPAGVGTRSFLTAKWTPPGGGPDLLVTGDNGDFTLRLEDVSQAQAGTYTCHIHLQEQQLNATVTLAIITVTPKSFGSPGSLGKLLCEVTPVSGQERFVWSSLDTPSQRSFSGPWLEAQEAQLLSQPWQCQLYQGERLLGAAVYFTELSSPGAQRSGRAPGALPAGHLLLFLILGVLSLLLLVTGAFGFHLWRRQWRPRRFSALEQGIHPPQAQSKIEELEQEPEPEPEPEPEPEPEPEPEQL
Experimental: as §1

[3] = molecular target: T1, human PD1 on HEK293F cells; experiment: flow cytometry, transfected HEK293F cells, 100 nM antibody [Cont.]
Experimental: as §1

[4] = molecular target: T3, human Tim3 on HEK293F cells (human, UniProt Q8TDQ0 22-301); experiment: as above
T3 construct: whole, on cells
T3 sequence (looked up): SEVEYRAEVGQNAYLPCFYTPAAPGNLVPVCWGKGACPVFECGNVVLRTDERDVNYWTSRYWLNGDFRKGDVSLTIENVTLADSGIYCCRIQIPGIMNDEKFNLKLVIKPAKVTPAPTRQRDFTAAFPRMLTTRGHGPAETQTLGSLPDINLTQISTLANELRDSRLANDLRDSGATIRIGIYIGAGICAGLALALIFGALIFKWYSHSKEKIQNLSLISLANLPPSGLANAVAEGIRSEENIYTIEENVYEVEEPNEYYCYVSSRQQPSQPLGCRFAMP
Experimental: as §1

[5] = molecular target: T2, human LAG3 on HEK293F cells; experiment: as above
Experimental: as §1

[6] = molecular target: T4, human CD40 on HEK293F cells (human, UniProt P25942 21-277); experiment: as above
T4 construct: whole, on cells
Experimental: as §1

[7] = molecular target: T5, human OX40 on HEK293F cells (human, UniProt P43489 29-277); experiment: flow cytometry, transfected HEK293F cells [Cont.]
T5 construct: whole, on cells
T5 sequence (looked up): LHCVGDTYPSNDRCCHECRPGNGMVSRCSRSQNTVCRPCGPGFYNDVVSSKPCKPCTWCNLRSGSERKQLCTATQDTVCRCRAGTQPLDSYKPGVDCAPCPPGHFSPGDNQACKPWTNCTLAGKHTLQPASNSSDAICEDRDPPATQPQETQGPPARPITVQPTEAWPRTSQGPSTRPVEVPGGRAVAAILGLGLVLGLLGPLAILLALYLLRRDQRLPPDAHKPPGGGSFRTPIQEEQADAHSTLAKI
Experimental: as §1

[8] = molecular target: T6, human CD95 on HEK293F cells (human, UniProt P25445 26-335); experiment: flow cytometry, transfected HEK293F cells [Cont.]
T6 construct: whole, on cells
T6 sequence (looked up): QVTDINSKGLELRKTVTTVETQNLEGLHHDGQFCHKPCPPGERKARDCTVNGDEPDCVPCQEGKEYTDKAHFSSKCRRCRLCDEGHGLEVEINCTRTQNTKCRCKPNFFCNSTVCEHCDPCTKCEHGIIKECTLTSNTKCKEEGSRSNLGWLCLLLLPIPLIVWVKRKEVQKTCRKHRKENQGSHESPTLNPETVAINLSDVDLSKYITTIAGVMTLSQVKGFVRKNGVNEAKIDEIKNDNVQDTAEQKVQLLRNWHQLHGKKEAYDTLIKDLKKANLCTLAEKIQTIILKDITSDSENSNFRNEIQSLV
Experimental: as §1

[9] = molecular target: T5, human OX40 on HEK293F cells; experiment: flow cytometry, transfected HEK293F cells, 100 nM antibody [Cont.]
Experimental: as §1

[10] = molecular target: T6, human CD95 on HEK293F cells; experiment: as above
Experimental: as §1

T4 sequence (P25942 21-277): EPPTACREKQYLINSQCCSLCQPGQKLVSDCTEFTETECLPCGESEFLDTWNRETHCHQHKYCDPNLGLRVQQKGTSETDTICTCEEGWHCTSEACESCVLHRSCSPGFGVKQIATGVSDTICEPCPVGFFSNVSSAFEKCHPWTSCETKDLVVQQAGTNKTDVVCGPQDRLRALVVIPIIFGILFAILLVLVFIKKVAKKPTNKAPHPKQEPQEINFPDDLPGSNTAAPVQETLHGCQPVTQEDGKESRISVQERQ
T1 sequence (Q15116 25-288): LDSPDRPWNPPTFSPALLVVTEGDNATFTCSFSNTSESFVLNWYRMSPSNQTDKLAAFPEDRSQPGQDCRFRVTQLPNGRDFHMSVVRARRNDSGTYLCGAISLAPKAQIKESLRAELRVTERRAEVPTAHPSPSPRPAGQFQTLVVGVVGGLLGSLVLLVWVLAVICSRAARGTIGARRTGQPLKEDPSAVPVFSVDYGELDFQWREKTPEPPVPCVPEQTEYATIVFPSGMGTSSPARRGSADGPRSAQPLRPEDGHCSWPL

B1: TY21687 (antibody, V domains shown)
VH: EVQLVESGGGLVQPGGSLRLSCAASGFTFSGYAIHWVRQAPGKGLEWIGIISPSGGGTKYAQKFQGRVTISRDNSKNTLYLQLNSLRAEDTAVYYCARHPFAYWGQGTLVTVSS
VL: DIQLTQSPSSLSASVGDRVTITCRASQSVDFYGISFLDWYQQKPGKAPKLLIYDASNRATGIPSRFSGSGSGTDFTLTISSLQPEDFATYYCQQYVSSPPEYTFGQGTKVEIK
notes: human IgG1 (hIgG1) from Fab hit B15700
B1 was tested, and the binding result [1] was “no binding (tested: 100 nM)”, the binding result [2] was “no binding (tested: 100 nM)” and the “% of cells in upper right quadrant (Q2)” value [3] was 5.96%. For the same binder, the “% of cells in upper right quadrant (Q2)” value [4] was 1.85% and the “% of cells in upper right quadrant (Q2)” value [5] was 1.31%.

B2: TY21585 (antibody, V domains shown)
VH: EVQLVESGGGLVQPGGSLRLSCAASGFTFSDYAIHWVRQAPGKGLEWIGIISPSSGSTNYAQKFQGRVTISRDNSKNTLYLQLNSLRAEDTAVYYCARDIHSGSSGYYYGFDVWGQGTLVTVSS
VL: B1 VL with Q27E, Y32F, D38A, Q94H, V96T, E101V
notes: human IgG1 (hIgG1) from Fab hit B15709
With B2 the “% of cells in upper right quadrant (Q2)” value [6] was 0.95 and the “Mean” value [6] was 8270.

B3: TY21591 (antibody, V domains shown)
VH: EVQLVESGGGLVQPGGSLRLSCAASGFSLSTGGVAVSWIRQAPGKGLEWIGEIYHSGSTYYSPSLKSRVTISRDNSKNTLYLQLNSLRAEDTAVYYCARRIATATYFDYWGQGTLVTVSS
VL: DIQLTQSPSSLSASVGDRVTITCRASQTVFSRYLAWYQQKPGKAPKLLIYDASNRATGIPSRFSGSGSGTDFTLTISSLQPEDFATYYCQQSYYWPPWTFGQGTKVEIK
notes: human IgG1 (hIgG1) from Fab hit B15756
In the case of B3, the binding result [7] is reported as “no binding (tested: 100 nM)”, the binding result [8] is reported as “no binding (tested: 100 nM)” and the “% of cells in upper right quadrant (Q2)” value [9] is reported as 0.42. For the same binder, the “Mean” value [9] was 11900, the “% of cells in upper right quadrant (Q2)” value [10] was 0.22 and the “Mean” value [10] was 5570.
